One data set concerns the target PKA kinase (Homo sapiens, UniProt P17612). Kind of data set: Quantitative analysis of inhibitory reaction against kinase on gold nanoparticle-peptide chip by secondary ion mass spectrometry. It is filed as biochemical. The conditions noted are these: ATP 10 μM, kinase 1 U, 30° C. for 2 hours, non-linear regression. The protocol: As one example for analyzing an inhibitory reaction against kinase activity, the effect of 4-cyano-3-methylisoquinoline (CMIQ, Sigma), an inhibitor against PKA kinase, was illustrated.
After silicon rubber having circular holes (3 mm diameter and 1 mm height) was attached to the surface of a slide glass (75×25 mm) consisting of a glass substrate, a gold nanoparticle-peptide chip was constructed in each of the holes according to the method of Examples 1-(3).
CMIQ was dissolved in a minimum amount of distilled water to prepare solutions having varying CMIP concentrations of 0.1 nM, 0.5 nM, 1 nM, 5 nM, 10 nM, 50 nM, 100 nM, 500 nM, 1 μM and 5 μM, and each of the solutions was mixed with kinase, was introduced into the gold nanoparticle-peptide chip formed in the holes and was allowed to react at 30° C. for 2 hours. In this reaction, the concentration of ATP was 10 μM, and the concentration of kinase used was 1 U. Since the amount of the peptide attached to the surface would generally be constant, the ATP and kinase concentrations were determined as concentrations at which the maximum enzyme reaction occurred.
The choice of the peaks before and after phosphorylation is not limited thereto, and peaks changed by phosphorylation as shown in FIG. 2 may all be applied. […]
More specifically, the values of Ap1 and Ap2 in the two reference samples, that is, the gold nanoparticle-peptide chip before treatment with kinase and the gold nanoparticle-peptide chip after phosphorylation, would be different depending on the intensity of ions. Thus, to correct this difference, percent phosphorylation was calculated according to the following equation 1: […]
In order to calculate percent inhibition, substitution from the percent phosphorylation value calculated in the equation 1 is made. […] More specifically, after the phosphorylation level at each concentration of the inhibitor is calculated, percent inhibition can be calculated according to the following equation 2: […]

The test system of data set [1] is T1, Ac-LRRASLGGGGC (SEQ ID NO: 9).
T1 sequence: LRRASLGGGGC

For data set [2], the system named is T2, Ac-IYAAPKKGGGGC (SEQ ID NO: 8).
T2 sequence: IYAAPKKGGGGC

By IC50 is commonly meant the concentration at which inhibition is half-maximal. A lower IC50 goes with higher potency.

As to `Cc1ncc2ccccc2c1C#N` [CMIQ, 4-cyano-3-methylisoquinoline], the “n (exponent of equation 3)” value on PKA kinase turned out to be 0.9996. At PKA kinase (equation 3), the IC50 was about 87 nM and the “Imax (percent inhibition at which the maximum inhibitory effect of the inhibitor occurs)” value is 100%.

In the case of Abl kinase (Calbiochem), in data set [1], the “SIMS chemical imaging of the phosphorylated peptide ion on microarray spots” value is recorded as “No cross-images of kinases against opposite peptides were observed”; the “change of the peptide mass peak (SIMS) on a chip carrying both peptides” value (“change of the peptide mass peak (SIMS)” for short) was “the AbI kinase and the PKA kinase did not influence the mass peaks of other peptides”. In addition, in data set [2], the “SIMS chemical imaging of the phosphorylated peptide ion on microarray spots (2 nM Abl, 100 uM ATP)” value is “kinase-treated spots (line 1 and 2) yielded strong ion mass images (i.e. [PAblH-SH-COOH+HPO3]+ or [PPKAH-SH-COOH+HPO3]+)”; the “change of the peptide mass peak (SIMS)” value is recorded as “only the mass signals of peptides specific for the kinases were changed”; the “phosphorylation of the chip-bound peptide, seen as a mass change in secondary ion mass spectrometry” value is reported as “the phosphorylation of the peptide occurred”.

For PKA kinase, in data set [1], the “SIMS chemical imaging of the phosphorylated peptide ion on microarray spots (50 nM PKA, 100 uM ATP)” value is “kinase-treated spots (line 1 and 2) yielded strong ion mass images (i.e. [PAblH-SH-COOH+HPO3]+ or [PPKAH-SH-COOH+HPO3]+)”; the “change of the peptide mass peak (SIMS)” value is listed as “only the mass signals of peptides specific for the kinases were changed”. Further, in data set [2], the “SIMS chemical imaging of the phosphorylated peptide ion on microarray spots” value was “No cross-images of kinases against opposite peptides were observed”; the “change of the peptide mass peak (SIMS)” value was “the AbI kinase and the PKA kinase did not influence the mass peaks of other peptides”.

The values above are taken from US7951572B2, “Construction of gold nanoparticle-based peptide chip, and assaying enzyme activity and inhibitor effect using secondary ion mass spectrometric analysis thereof” (Korea Advanced Institute of Science and Technology, priority 2006, dated 2011).
